Assay: soluble on expression in E. coli; label from the status in PepcDB or PDB records

Sequence | soluble on expression in E. coli
MTHRPELHVTPEIGILDAPAGALFDGTRWHLFHQFRPKATAPSRWAHDYATTDPFNWEICDDVIAPQGDEIRLRAGSVTSDGKTTRLYFTSITNEGDSIHLAEITDLDATTYDVNDDATTTDPHVTRLGQVVADQGGYTNFRSPCVVPNWVTADDRDEGHSGWIMLAVTGDMDEPTLVILDSENGTDWELRGPLKVVGNSGIEAERPVAPRIIRLRDEIDQNVYDILIVTIEIGGIDRSGYLVGKLHNNIFTVVSPFTRIDYGHDFTRPRNTNYTSHLNSSVAPEHRYSHAHVFGLMNGIGRLDDATTHLSFREEQWANCLSLPRRMTLQGGKIYHTPVAGLPDAIRDSDHAIMWTGLLDVPLGEKVTVELVDTTGNIAAKITHYGDLLELDRSMNPHHEGDDIAVAPLTEDDTDSVTIIVDGSTVEVFADGGQIAMASRVYFNGYCEAFTPQASDGADILRSDVTKPLG | not soluble
MSLLFSNTYRIESNAPLADKLRPKNLDDFFGQESILGHDSLLRNAILNDKVGNMIFSGPPGVGKTTLIEIISSNTRSSLIKLNAVLSSIKELRTEIANAKERLRSSNRKTILFIDEVHRFTSVQQDALLPSIENGTITFIGATTENPFFAVNKALISRARIFSLLPLNKNDLKKIIDKVIKYYSCLKDSKVVEIKEEAMNHLIKFSGGDARNLINALELGISITKENKENLVVIDLAIAEDSIQKKNIVYDKNGQNHFDVISAFIKSIRGSDPDATLYWLANMVEAGEDPNFIFRRLLISACEDIGLADPNAIVVVQSCCDAFDRVGFPEGLFFLSQASLYLAISPKSNSTKSIFKAMEAIKATNVSLVPNHLKNNASNYLNPHNYQGKWLQQEYLPTDLQGIKFWKPKDSGWEKNKYEDLPKKQKSEGHHHHHH | not soluble
MSLIIRKLFEFENAHIVRFCSSKRCKSSIHGHSYKVEVLLESKYLDNAGMVYDFGLLKTYIRQIIDSFDHAITLFKYDDAKYLEEMKKYSSRWICLPVNVSAENFCRVFFILIDALLKQTKMVNGEQGVTLQSIIVHETRTGYAQGFREDAYSELMPKISLQDIEFSNGIKAEWNDIDFYNKLKNEEIFINPKEEGHHHHHH | soluble
GDTHEFHKLLIKVVDLFLEDRIKEFEMKLNTTLDELEFEELIGKPDSSNSAENNGIFIDEYSYDASENAMKKLFVEYVRQPEFKYTVLSIKGVNDWVRE | soluble
MISDRPGLPGEDMRLALLSFENYLLANRNTEKPVLHIALSPAPEDKLTDEQLAELAQNYMQKMGYGDQPYIAYKHGDTHNTHIHIVSVCVDEEGRKINDSFEHRRSMTACRELEIDFGLRNGADMEERNQKAEMKKVDATQGDVRHQIGNTLKAVLESYRFQTFGEYSALLSTLNIEAKQVRGEFKGEPYTGIIYSATDDSGKVVSPPFKSSRFGKRFGNERLEKRMLSHTRDFKDGKWAPTIHAQVVYAMRHARSREELAGLLKKARIDAVFRENEQGRIYGVTFIDHNRREVFNGSRMGKEFSANIYNELFKWWDGIPATERSAHTGTELWQHHSHKAESGSPLEQAASIFSMETNPVDYGEEALARRMKKRRKAKRKSRGILEHHHHHH | soluble
MGSDKIHHHHHHMRKLPPLRALQIFEAAARHAHFSRAATELCITQSAVSHQVRLLEAHFGERLFIREGRQLCLTSKGNVLYHELERIFNELNDLSMQITGDCNDQLRLAVYSSFAIKWLIPRLSDFHRLHPQIKIRLDMITDDPQMSDSVADMFITGQSGQPGYVHRMLHQERLIPVICPGLLNTDHSALSVLRQHALLTVDEGPIGFDWERWLKVNSISIAATQQQHVFSHVLLAIEAAIAGQGIALASDFMVERDISKGALVALDLPAMLTGFEFNFSCKQRRLKEPAIAAFVQWLTKK | not soluble
MKQLMIEASTPLCQLQDAGRFGVRHLGVTQGGALDWVAMHWANWLLGNPLGAPVVEVALGGFCVVAEQDCVLALAGADLDACVDDQPLAPWRSFALAKGQRLTLKQPKVGVRAYLAAPGGFLGEDVLGSCATVVREALGGIDGQGAALAKHQALAFTGSNAPLREVPQALCPQFAQKPVLDLVMGAQIGEFSGTSLFEAFNREWTLDSRADRMGIRLLGPQLVYQGAPMISEGIPLGAVQVPPDGQPIVLLNDRQTIGGYPRLGALTPLALAQLAQCMPGTVVRFRAVVQDEAWREQQLYLGRWS | not soluble
MGSDKIHHHHHHMDSKHSMISLKQKLSGLLDVIPKQSEIIYADYPLYGNVGDLFIMKGTEAFFKEHGIRVRKRWNPDNFPIGRKLDPNLIIVCQGGGNFGDLYPYYQGFREKIVQTYPNHKIVILPQSIYFQNKDNLKRTAEIFSKHANLHIMTREKASYATAQAYFTTNHIQLLPDMAHQLFPVIPTQQPSNQKLRFIRTDHEANQALQEHAEAESYDWRTVLSASDRRTIAFLQTLNVLNKKAGNPLPIAYIWEKYSDYIVQKAIRFFSRYESVETSRLHGHILSSLLQKENTVIDNSYGKNANYFHTWMEGVPSTRLIQHASKKENLPAHM | not soluble
MGSDKIHHHHHHMNIGGGKFLLGRISNNPTSGIVGLANVGKSTFFQAITNSKLGNPANYPFATIDAECAKVNIPSVPLSNLLRIYQSAKCVPGTLTIYDIAGLTRGASQGHGLGNKFLNDIRHVEGIFQVVRGFLKEDITHIEGNVDPVRDLSVVQDELILKDLEFLENIRERLSKKMRMVSKNSKEHQEMKIETELLDALEEHLFNGKKIRHFKDHWNLDEVKILNKHNFLTSKPTLILLNVSPQDYVRNENKFVRNIIEWINEFSPGDKFLLFSAEFESQLMECKGIASEYFDKIKEDTNVSDQQLVSAIPQIILEMRKLLNLISFFTCGPQEVHQWNIREGTTAQEAAGVIHSDLRETFISADVIKYDDLKKMEPPLNESLLKSKGLIKRAGKQYIMQDNDIALFKAAGGKIKK | not soluble
MGSDKIHHHHHHMSFPDVTNYYLFAQVMACGSISAASRELGLPKSTISRKMALLEQEQGTRLFHRSRSGLKLTDVGREFLVHCERLVSAAESAQQVTQRLLDKPRGKVEISAPYALSQSLLVQVLPEFMSLYPEVEIQLVVTNRPVNLIEEGIDIALRVRKNIEDSSLIARPISQAPQTLYIAPDLINQNSITEPEDLLTFEHLSMHYTNGRYGYELIHSSGLQKNIRIKPRLITDDMIVLREAAIKKLGIVALPNYLCNDAVNSGELVPVLTDWHLPIGIMHITYSHRRGILPAVRVLIDFLAEKLPHLAQQQF | not soluble
MERQVFIRLRHRLEADPDELILLGHIAQVAGDRGYKEKLERLPIYQVSKADQSMVVLDVMKVIEAVHKSFPDLDVQTVGGSETIVEIQYPKRDLSP | soluble
MIDPREIAISSRLEKVRNVIPVVSGKGGVGKSLISTTLALLLREKGYKVGLLDLDFHGASDHVILGFEPKEFPEEDKGVVPPEVNGVKFMTIVYYTENKPTPLRGKEVSDALIELLTITRWDELDYLVIDMPPGLGDPFLDVLRFLKRGKFIVVATPSKLALNVVEKLIQLLKEENREILGIIENMKLDEEEDVKNLAKRHGINYLLGVPFYRDLEEKIGKVEELLKTPFADKLREVIKVLV | soluble
MEAVGADESYDGQQLYMMLVGHSRMADADRTAILGGTFTPIHNGHRALLHKAFQTASHDGSGDGHVIVGLTSPELATETRSDPTHVKQLGAYDDRRSALASELDQLGEPYTATYEIVRLDDTQGPAATRADVDALVASPEAKAQRRAYELNQQRRESGLHPLEIHTPPFVVAEDGTRISSTRIRNGEIDVHGRLLDASE | not soluble
MNETIAFRPEGRASIKDVVVNYTLASLDELEQLHPALNLLAHPSIVRGSHDFFVRCYDAGVQHAQAGAAETVAVLPDSLPQERQRSGLLCAAAGRLDALRQPLTHNRLCDLASQFCAGMADVDSETRSGFYTVRSISLPVYRRLLRDQHSHGVCLQQALLHLLAWKSDSPWARQQAQRLLWQGGVLGDKGEFALMTLDDELRERQIGWPGLWSLLAVTGFLAKFPAGPIFAD | not soluble
MDYLNYEEIQSLKNSLLHNIKHTYISRYMILTALYTGMRPGEIAVLTWSDIDFKNQTININKSYNHDKGRVDNYDSSEIDKSTKNTNSVRIIKVDKKFLDILSQLKQNDHEKIFIGKDGTIPTSNAVNKVWRKQLEKLNIDKPSFHFHSVRHTHVALLPFKGVPLYAISKRLGHANMSTTAKKYAYMLDELKQQVRLEHHHHHH | soluble

From the DeepSol protein solubility set
